According to patent US20080261267A1, “Cellulases from Rumen” (priority 2004, published 2008):

Legend:
Type in all cases: biochemical
[1] = Specific activity of purified endoglucanases; details: purified to homogeneity; pH 5.6 and 50° C.; CMC as substrate
Protocol: FIG. 2 represents Table 2 which contains the data obtained by purification of endoglucanases of seven clones (pBKRR.1, 9, 11, 13, 14, 16 and 22) with respect to the specific activity. […] They were purified to homogeneity and their specific activity was estimated at pH 5.6 and 50° C., using CMC as substrate.
The endoglucanases were recovered from 1-liter shaked flask fermentations, in Luria-Bertany broth plus 50 μg of Kanamycin per ml. One gram of fermentation broth was mixed with 10 ml of standard buffer in a 50-ml Falcon tube. The solution was vortexed and then incubated with DNase I grade II, for 30-45 min, and then sonicated for 4 min total time. A sample of the soluble fraction was separated from insoluble debris by centrifugation (10,000×g, 30 min, 4° C.) and proteins were precipitated by addition of 80% chilled acetone (−20° C.). Proteins were resuspended in standard buffer and stored at −20° C. at a concentration of 5 mg/ml until use. The amount of protein expression was examined using SDS-PAGE with 10-12% acrylamide. […] The gel region containing the active cellulase, detected in a parallel track by activity staining (using Ostazin brillian-blue carboxymethyl cellulose) was excised, suspended in two volumes of standard fuffer and homogenized in a glass tissue homogenizer. […]
The standard cellulase activity was determined in a continuous spectrophotometric assay by measuring the release of reducing sugars from the 4% (wt/vol carboxymethyl cellulose (CMC) in 0.5-ml reaction mixtures containing 50 mM sodium acetate buffer, pH 5.6, at 40° C., using the dinitrosalycilic acid (DNS) method (Bernfeld, P. (1955) Amilases and b. In: Colowick S P, Kaplan N O (eds). Methods in Enzymology, Academic Press, New York pp. 133-155). The reaction was performed in 0.5 ml scale containing 20 mg substrate and 5 mg lyophilised cells or 0.1 mg purified enzyme. Reactions were allow to proceed for a time period of 5-30 min after which the samples were centrifuge (10,000×g, 3 min). […] Finally, each well was diluted with 150 μl water and the absorbance at 550 nm was measured. […]

[2] = Thermal activity and thermostability; details: at the pH optima; CMC
Protocol: (§1) FIG. 3 represents Table 3 giving an overview over the biochemical properties of the cellulases according to the invention. Reaction was performed at the optimum pH and temperature for each done using CMC as substrate. […] The values for clones pBKRR.1, 9, 11, 13, 14, 16 and 22 are depicted. For each clone the following data are given: • maximum pH at which the remaining activity after 24 h incubation at the indicate pH is >90% (column “Stable at pH”). […] Activity was measured after 2 h incubation and compared with a control reaction in buffer lacking dimethylsulfoxide, • detergent resistance given by the remaining activity in the corresponding buffer (optimum pH) containing the indicate detergent at a concentration for 0 to 3%. […]
(§2) FIG. 4 a-c represent the results of the determination of pH and temperature optima showing graphically views of the pH-dependence activity and temperature-dependence activity of the polypeptides according to the invention. The pH optima of rumial endoglucanases were measured under conditions described in Example 5: 4% CMC, 0.5 mL of 50 mM buffer at the corresponding pH and 0.1 mg E. coli cell lysates, for 5-30 min, at 40° C. Effect of temperature on endoglucanase activity was measured in 50 mM sodium acetate buffer pH 5.6. […]

[3] = pH-dependent activity and pH stability; details: cell lysates; CMC; 40° C.
Protocol: as §1, §2

Molecule	specific activity [1]	temperature of improved activity and thermostability [2]	activity at alkaline (pH 9.0-10.0) and acidophilic (3.5-4.0) conditions [3]
pBKRR.14: rumen endoglucanase, sequences FIG. 16/24; also capable of hydrolyzing xylan (protein, Description of sequence sequence derived from genomic DNA library from rumen ecosystem, particularly amino acid sequence of clones pBKRR 14 and 20-1; RR14=RR20-1;(see Figure 24), also capable of hydrolyzing xylan) MINVLQHHPEVELSVDKTSVSFNRSGGEETFTVTSSTQPHVSADVSWVVVETGKIDKDHHTEVRVLAGANRKEASAGTLTVSCSDKKVSVSVKQEAFVAPSVASTTAVTPQMVFDAMGPGWNMGNHMDAISNGVSGETVWGNPKCTQATMDGVKAAGYKAVRICTTWEGHIGAAPAYALEQKWLDRVAEIVGYAEKAGLVAIVNTHHDESYWQDISKCYNNAANHEKVKDEVFSVWTQIAEKFKDKGEWLVFESFNEIQDGGWGWSDAFRKNPDAQYKVLNEWNQTFVDAVRSTGGQNATRWLGIPGYACNPGFTIAGLVLPKDYTTANRLMVAVHDYDPYDYTLKDPLIRQWGHTADADKRPSGDNEKAVVDVFNNLKAAYLDKGIPVYLGEMGCSRHTAADFPYQKYYMEYFCKAAADRLLPMYLWDNGAKGVGSERHAYIDHGTGQFVDEDARTLVGLMVKAVTTKDASYTLESVYNSAP	34.60 µmol/min/mg	70 °C	
pBKRR.22: rumen endo-beta-1,4-glucanase, sequences FIG. 11/19 (protein, Description of sequence sequence derived from genomic DNA library from rumen ecosystem, particularly amino acid sequence of clones pBKRR 22, 6, 8 and 23;(see Figure 19)) MLLASFSLFSCGGSDGDDSTPTPSVSLQLVSQSIAEGAQVDAASTTVLTLNYNNPVRVTGNGVTLNGIAVKAKVSGNTSVEIPLTLVEGTVYTLKVAWGAIVAAADGKVVAPEFTLNFTTKGNQQPPIDENSPIAKKMGWGWNLGNHFDTSSGADGVRPQWGYWDNAKPTQVLYNNLRNAGTSTVRIGVTWGNYQNTSNWDIDANYIAEVRQNVEWAEAAGLNVILNMHHDEYWLDIKGAANNSSTNTNIKNRIEKTWKQIAEAFKDKGEFLIFESFNEIQDGGWGWGANRTDGGKQYKTLNEWNQLVVNTIRATGGNNATRWIGIPSYAANPSLALETGFVLPTDAANRLMVSVHFYDPSNFTLSPYVSDDSSEYKSGGYSEWGHTAAKGKADTGSNEDHVVAIFKKLHDKFVAKNIPVYIGEYGCVMHKNTRSNYFRNYYLEYVCRAAHEYGMPLCIWDNNQTGGGNEHHGYFNHTDGQYLNAMESLVKTMIKAATSDDASYTLESVYNKAPK	68.30 µmol/min/mg		without variation of enzyme activity
